Source: article PMC3280215 (Science (New York, N.y.), 2011)

The binders below were run against gp120 (of the ELISA) (HIV-1, strain  for ELISA; …, UniProt Q75760) (assay: ELISA).

Binder | binding result
PGT 128 VH H52aA (antibody, V domains shown) VH: QPQLQESGPTLVEASETLSLTCAVSGDSTAACNSFWGWVRQPPGKGLEWVGSLSACASYWNRGWTYHNPSLKSRLTLALDTPKNLVFLKLNSVTAADTATYYCARFGGEVLRYTDWPKPAWVDLWGRGTLVTVSS VL: QSALTQPPSASGSPGQSITISCTGTSNNFVSWYQQHAGKAPKLVIYDVNKRPSGVPDRFSGSKSGNTASLTVSGLQTDDEAVYYCGSLVGNWDVIFGGGTKLTVL | binds
PGT 128 (format not stated for the experiment) (antibody, V domains shown) VH: QPQLQESGPTLVEASETLSLTCAVSGDSTAACNSFWGWVRQPPGKGLEWVGSLSHCASYWNRGWTYHNPSLKSRLTLALDTPKNLVFLKLNSVTAADTATYYCARFGGEVLRYTDWPKPAWVDLWGRGTLVTVSS VL: QSALTQPPSASGSPGQSITISCTGTSNNFVSWYQQHAGKAPKLVIYDVNKRPSGVPDRFSGSKSGNTASLTVSGLQTDDEAVYYCGSLVGNWDVIFGGGTKLTVL | binds
PGT 127 (format not stated for the experiment) (antibody, V domains shown) VH: QPQLQESGPGLVEASETLSLTCTVSGDSTGRCNYFWGWVRQPPGKGLEWIGSLSHCRSYYNTDWTYHNPSLKSRLTISLDTPKNQVFLRLTSVTAADTATYYCARFGGEVLVYRDWPKPAWVDLWGRGTLVTVSS VL: QSALTQPPSASGSPGQSITISCTGTSNNFVSWYQQYPGKAPKLVIYEVNKRPSGVPDRFSGSKSGSTASLTVSGLQADDEGVYYCSSLVGNWDVIFGGGTKLTVL | binds

These binders were tested against HIV-1 YU2 Env on the cell surface (HIV-1 YU2, UniProt P35961) (assay: flow cytometry on cells).

Binder | binding result
PGT 127 IgG (antibody, V domains shown) VH: QPQLQESGPGLVEASETLSLTCTVSGDSTGRCNYFWGWVRQPPGKGLEWIGSLSHCRSYYNTDWTYHNPSLKSRLTISLDTPKNQVFLRLTSVTAADTATYYCARFGGEVLVYRDWPKPAWVDLWGRGTLVTVSS VL: QSALTQPPSASGSPGQSITISCTGTSNNFVSWYQQYPGKAPKLVIYEVNKRPSGVPDRFSGSKSGSTASLTVSGLQADDEGVYYCSSLVGNWDVIFGGGTKLTVL | binds
Fab PGT 128 (Fab, V domains shown) VH: QPQLQESGPTLVEASETLSLTCAVSGDSTAACNSFWGWVRQPPGKGLEWVGSLSHCASYWNRGWTYHNPSLKSRLTLALDTPKNLVFLKLNSVTAADTATYYCARFGGEVLRYTDWPKPAWVDLWGRGTLVTVSS VL: QSALTQPPSASGSPGQSITISCTGTSNNFVSWYQQHAGKAPKLVIYDVNKRPSGVPDRFSGSKSGNTASLTVSGLQTDDEAVYYCGSLVGNWDVIFGGGTKLTVL | binds
Fab PGT 127 (Fab, V domains shown) VH: QPQLQESGPGLVEASETLSLTCTVSGDSTGRCNYFWGWVRQPPGKGLEWIGSLSHCRSYYNTDWTYHNPSLKSRLTISLDTPKNQVFLRLTSVTAADTATYYCARFGGEVLVYRDWPKPAWVDLWGRGTLVTVSS VL: QSALTQPPSASGSPGQSITISCTGTSNNFVSWYQQYPGKAPKLVIYEVNKRPSGVPDRFSGSKSGSTASLTVSGLQADDEGVYYCSSLVGNWDVIFGGGTKLTVL | binds
PGT 128 IgG (antibody, V domains shown) VH: QPQLQESGPTLVEASETLSLTCAVSGDSTAACNSFWGWVRQPPGKGLEWVGSLSHCASYWNRGWTYHNPSLKSRLTLALDTPKNLVFLKLNSVTAADTATYYCARFGGEVLRYTDWPKPAWVDLWGRGTLVTVSS VL: QSALTQPPSASGSPGQSITISCTGTSNNFVSWYQQHAGKAPKLVIYDVNKRPSGVPDRFSGSKSGNTASLTVSGLQTDDEAVYYCGSLVGNWDVIFGGGTKLTVL | binds
